The source of these data is the supplement of paper PMC10567573.

This data set can be described thus: protein stability index of a GFP-peptide fusion (GPS, HEK-293T) (PSI 1-6); higher = more stable.
Where [1] appears, read: treatment: DMSO, c terminus: a fixed tail appended.
Where [2] appears, read: treatment: MLN4924 1 uM, 8 h, c terminus: a fixed tail appended.

± gives the standard deviation.
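Further: 24-mer peptide tiles fused after GFP, lentivirally expressed, FACS-sorted into six equal bins by GFP/DsRed ratio, decoded by Illumina sequencing, PSI is the read-weighted mean bin number.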

Turning to LIALLTWGYIRYSGQYRELGGAID [ATL3], the protein stability index reads like this: under setting [1], 3.4 ± 0.13; under setting [2], 3.52 ± 0.17.

For LIPVPMATQIQQLLQDKQFELALQ [VPS39], the protein stability index by setting is: under setting [1], 2.31 ± 0.12; under setting [2], 2.69 ± 0.29. LKEGVRLDRVRGGRQKYKRRPEVD [ESRRA]: the protein stability index is 4.19 ± 0.29 under setting [1] and 4.43 ± 0.19 under setting [2].

Take LKKDKKKEEKEDEISLEDLIERER [ZC3H15]: the protein stability index runs as follows: under setting [1], 5.47 ± 0.41; under setting [2], 5.51 ± 0.13. Taken in the same sequence, the figures for LKLARKAYHDPMLKLSIMSEEELT [NET1] were 3.06 ± 0.2 and 3.14 ± 0.21. As to LKLYEQWKNFDERKEMATILSKMP [CCNC], the protein stability index is, setting by setting: under setting [1], 2.61 ± 0.59; under setting [2], 2.62 ± 0.41. For LKPEKSYSFVLTNRGNSAGGLQHR [PTPRD], the protein stability index came out at 3.08 ± 0.53 under setting [1] and 3.27 ± 0.23 under setting [2]. For LLEATGGAAGRSHHLDEDEERERI [KCTD10], the protein stability index under setting [1] worked out at 5.25 ± 0.25 and the protein stability index under setting [2] was 5.41 ± 0.35. For LLGFLRIRVRGQRASRLQAPVLVA [LPCAT4], the protein stability index was found to be 2.37 ± 0.52 under setting [1] and 2.12 ± 0.29 under setting [2]. For LLLILVSYVHILSAILQFPSTLGR [OR10K2] the same measures were 2.98 ± 0.16 and 3.33 ± 0.35.

Regarding LLLPGIYTVSATAPGYDPETVTVT [CPN1], the protein stability index amounted to 2.16 ± 0.22 under setting [1] and 2.17 ± 0.31 under setting [2]. Consider LPLPPPPPEPLSQVSMWDQRWQDH [APBB1IP], for which the protein stability index came to 3.19 ± 0.78 under setting [1] and 3.54 ± 0.57 under setting [2]. In the case of LQDGNLRAPHKESTLPRSGSSGGQ [CHCHD6], the protein stability index reads like this: under setting [1], 5.03 ± 0.12; under setting [2], 4.95 ± 0.31. Taken in the same sequence, the figures for LQMEVCRLKKEEEDRIVTQNRVFA [CEP70] were 3.98 ± 0.31 and 4.01 ± 0.055.

As to LRLADEFGVAVVITNQVVAQVDGA [RAD51], the protein stability index by setting is: under setting [1], 2.31 ± 0.52; under setting [2], 2.1 ± 0.39. Turning to LRLSCMERKKVQIRSMDPSALASD [DCAF4], the protein stability index turned out to be 2.99 ± 0.31 under setting [1] and 3.48 ± 0.3 under setting [2]. LRPTLLLTSLHHFMHSRNLYILGN [PNLIPRP1] yielded a protein stability index under setting [1] of 3.08 ± 0.31 and a protein stability index under setting [2] of 3.13 ± 0.81. Taken in the same sequence, the figures for LRQEMVNLRATDVRLMRQLLVINE [LURAP1L] were 2.35 ± 0.081 and 2.48 ± 0.34.

On to LRQLGCKDGKNWNSNQATDIMETS [SPOPL], for which the protein stability index was found to be 4.25 ± 0.24 under setting [1] and 4.28 ± 0.1 under setting [2].

As for LRTSNGQPVKTAGEITQHNVTELL [DNAAF3], the protein stability index runs as follows: under setting [1], 4.14 ± 0.23; under setting [2], 4.33 ± 0.17. LRVISDEGGWWKAISLSTGRESYI [SLA] gave a protein stability index under setting [2] of 1.88 ± 0.22. As for LSAALASSQKQHSFTSSDKTIKSF [C8orf76], the protein stability index worked out at 3.77 ± 0.35 under setting [1] and 3.74 ± 0.2 under setting [2]. Turning to LSAVPEEGDATRDPGPEPEEEPGV [PSD2], the protein stability index under setting [1] was 5.77 ± 0.25 and the protein stability index under setting [2] stood at 5.48 ± 0.49.

Regarding LSEEERSEKAMLRSRIEEQSQLIC [CCDC89], the protein stability index reads like this: under setting [1], 4.53 ± 0.3; under setting [2], 4.62 ± 0.11. For the sequence LSKSRTDYQPTQAGRLMRPSVKYL [RNF180], the protein stability index worked out at 3.19 ± 0.25 under setting [1] and 3.11 ± 0.49 under setting [2]. Take LSLESEGAGEGAAASPELSALEEA [TPPP]: the protein stability index by setting is: under setting [1], 5.52 ± 0.17; under setting [2], 5.58 ± 0.17. On to LSLTGVSLAGALGVKFVGLFIILQ [POMT2], for which the protein stability index was determined as 3.05 ± 1.1 under setting [1] and 2.39 ± 1.1 under setting [2]. As for LSRDTVQESYENVDSLESHIPSQE [ZNF263], the protein stability index runs as follows: under setting [1], 5.26 ± 0.13; under setting [2], 5.41 ± 0.13.

As to LSRENIQSSLLETLYRNRSNLETI [PPEF2], the protein stability index reads like this: under setting [1], 2.83 ± 0.39; under setting [2], 2.64 ± 0.33. Take LSVEADINGLRRVLDELTLARADL [KRT17]: the protein stability index by setting is: under setting [1], 2.66 ± 0.26; under setting [2], 3.04 ± 0.43. Turning to LSWFILHARYRVIHFIAVAVCLLG [SLC35F2], the protein stability index reads like this: under setting [1], 2.49 ± 0.12; under setting [2], 2.83 ± 0.91. LTEAEGWHFFCFQGEATRKLAGK [SAT2]: the protein stability index stood at 2.69 ± 0.29 (treatment: DMSO, c terminus: native) and 3.02 ± 0.49 (treatment: MLN4924 1 uM, 8 h, c terminus: native). Take LTEIYRIVSQKQMSDRRENDMSPS [RAB11A]: the protein stability index was 3.54 ± 0.2 under setting [1] and 3.81 ± 0.12 under setting [2]. Consider LTHFSRRYCQCNPDDSTSEDGIHT [PSD2], for which the protein stability index under setting [1] amounted to 3.6 ± 0.27 and the protein stability index under setting [2] came out at 3.77 ± 0.3.

Sequence LTLSGIKEDNSLLNQGFLQAKPEK [MYBL2] registered a protein stability index under setting [1] of 4.53 ± 0.39 and a protein stability index under setting [2] of 4.61 ± 0.099. Taken in the same sequence, the figures for LTYACENGHTDVADVLLQAGADLE [ANKRD17] were 4.3 ± 0.16 and 4.68 ± 0.35. For the sequence LVADLLYWKDTRTSGVVFTGLMVS [RTN2], the protein stability index under setting [1] was found to be 3.17 ± 0.46 and the protein stability index under setting [2] amounted to 3.03 ± 0.4. For LVELPASFRELLTFFCTNATIHGA [SCNN1D] the same measures were 2.79 ± 0.38 and 2.63 ± 0.49. With LVETAIQSLDEPGGATFLLTAKQL [TRIM63], the protein stability index reads like this: under setting [1], 2.75 ± 0.14; under setting [2], 2.66 ± 0.45. Take LVMASLYHIYVALEEEIERNKESP [HMOX1]: the protein stability index worked out at 2.27 ± 0.19 under setting [1] and 2.22 ± 0.44 under setting [2]. LVPALRLPGRKLVSSAVSPSIIPQ [INTS4] returned a protein stability index under setting [1] of 2.48 ± 0.31 and a protein stability index under setting [2] of 2.46 ± 0.26. Taken in the same sequence, the figures for LVSIRNNRNLQKFSLFGDISVLQQ [FBXO33] were 2.17 ± 0.14 and 2.09 ± 0.29. LVSPSNNSKEDAFSGTDWMLEKMD [ATF4]: the protein stability index is, setting by setting: under setting [1], 4.66 ± 0.26; under setting [2], 4.64 ± 0.23. Consider LVWLVRELVKSGVLGADGVCMTFM [INTS3], for which the protein stability index was found to be 2.17 ± 0.54 under setting [1] and 2.22 ± 0.84 under setting [2]. With MAAEIQPKPLTRKPILLQRMEGSQ [WDFY2], the protein stability index runs as follows: under setting [1], 4.05 ± 0.27; under setting [2], 3.8 ± 0.38. In the case of MAETVADTRRLITKPQNLNDAYGP [SNX3], the protein stability index is, setting by setting: under setting [1], 3.95 ± 0.25; under setting [2], 4.17 ± 0.15. For MANQEAAIQAFLDKCSAPKIWRTP [IQUB] the same measures were 3.11 ± 0.14 and 3.16 ± 0.34. Take MATITCTRFTEEYQLFEELGKGAF [CAMK2A]: the protein stability index under setting [1] was 2.35 ± 0.23 and the protein stability index under setting [2] was 2.44 ± 0.4. Taken in the same sequence, the figures for MAVAQQLRAESDFEQLPDDVAISA [NCF4] were 4.89 ± 0.27 and 4.88 ± 0.19. The sequence MCSTLEHNCAHFCINIPGSYVCRC [MATN2] showed a protein stability index under setting [1] of 3.18 ± 0.33 and a protein stability index under setting [2] of 3.19 ± 0.44.

The sequence MCYRVRWEEAAPGRAVEHAMFLGD [MYORG] registered a protein stability index under setting [1] of 2.27 ± 0.18 and a protein stability index under setting [2] of 2.34 ± 0.47. For MEGDGGTPWALALLRTFDAGEFTG [RIPK4], the protein stability index under setting [1] worked out at 2.11 ± 0.16. Turning to MELGGHWDMNSAPRLVSETAERKQ [MFSD9], the protein stability index reads like this: under setting [1], 4.98 ± 0.11; under setting [2], 4.98 ± 0.2.
